Earlier results on 1 substance are cited in PMC4322731.

This data set deals with Cys12 (UniProt position 13, SVLFVCLGNIC). As to conditions: not stated (discussed as the resting-state thiolate form of the free enzyme).

Consider “Bovine heart low molecular weight protein tyrosine phosphatase (BHPTP, LMW-PTP, class II PTP) (Bos taurus)”, for which the pKa entry was “less than 4”.
